These results are taken from patent US20240271091A1 (University of Pennsylvania, published 2024).

No end group written: not given here.

The target of this assay is BSA (UniProt P02769 25-607). The assay is described as follows: UV photocrosslinking of hIgG2 in the presence of BSA.

B1: photoreactive Protein G (pAbBD), BPA position not stated (designed binder)
chain: MTFKLIINGKTLKGEITIEAVDAAEAEKIFKQYANDYGIDGEWTYDDATKTFTVTE
modifications: also: contains benzoylphenylalanine (BPA), position not given here
As for B1, the binding result is “no binding (tested: 1% BSA solution (200-times molar excess))”.
